The target in test [1] is T1, Ev1 protein (Homo sapiens, UniProt Q9UI08).
T1 construct: in accordance with the protocols used in purification of the entire-length Ev1 protein; 6xHis (N, cleaved yes); made in house; host or cells: E. coli BL21 (DE3) codon plus-RP, pET15b vector
T1 sequence (Q9UI08 1-418 isoform Q9UI08-2): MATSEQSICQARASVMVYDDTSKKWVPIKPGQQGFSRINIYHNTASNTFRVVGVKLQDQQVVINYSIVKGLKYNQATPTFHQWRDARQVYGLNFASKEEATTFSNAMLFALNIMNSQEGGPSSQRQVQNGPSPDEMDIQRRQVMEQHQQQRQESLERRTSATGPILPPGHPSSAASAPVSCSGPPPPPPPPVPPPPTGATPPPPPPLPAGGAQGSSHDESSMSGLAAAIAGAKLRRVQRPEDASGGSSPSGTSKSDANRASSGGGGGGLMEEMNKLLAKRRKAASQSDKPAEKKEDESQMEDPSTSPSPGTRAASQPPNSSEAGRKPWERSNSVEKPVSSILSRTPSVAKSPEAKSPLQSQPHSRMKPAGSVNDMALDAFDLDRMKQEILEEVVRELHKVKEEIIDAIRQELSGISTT
Briefly: Influence of Rad51B or Rad51 on catenation of single-stranded DNA by the Ev1 protein. Format: biochemical. Here is the method:
Lanes 1 and 5 indicate the results of control experiments in which neither the Ev1 nor the Rad51B protein was used. Lanes 2 and 6 indicate the results of experiments that were carried out using a 4 μM Rad51B protein in the absence of the Ev1 protein. Lanes 3 and 7 indicate the results of experiments that were carried out using a 4 μM Ev1 protein in the absence of the Rad51B protein. Lanes 4 and 8 indicate the results of experiments that were carried out using a 4 μM Ev1 protein and a 4 μM Rad51B protein. Further, lanes 1-4 indicate the results of experiments that were carried out in the presence of ATP, and lanes 5-8 indicate the results of experiments that were carried out in the absence of ATP. […] Lanes 1 and 5 indicate the results of control experiments in which neither the Ev1 nor the Rad51 protein was used. Lanes 2 and 6 indicate the results of experiments that were carried out using a 4 μM Rad51 protein in the absence of the Ev1 protein. Lanes 3 and 7 indicate the results of experiments that were carried out using a 4 μM Ev1 protein in the absence of the Rad51 protein. Lanes 4 and 8 indicate the results of experiments that were carried out using a 4 μM Ev1 protein and a 4 μM Rad51 protein. Further, lanes 1-4 indicate the results of experiments that were carried out in the presence of ATP, and lanes 5-8 indicate the results of experiments that were carried out in the absence of ATP.
The Rad51B protein was mixed in a concentration of 0.5 to 8 μM with a 4 μM Ev1 protein, and the activity was then measured. Lane 1 indicates the results of a control experiment in which neither the Rad51B protein nor the Ev1 protein was added, and lane 8 indicates the results of a control experiment in which a 8 μM Rad51B protein was added and no Ev1 protein was added. Lanes 2-7 indicate the results of experiments in which the Rad51B protein was added in concentrations of 0 μM, 0.5 μM, 1.0 μM, 2.0 μM, 4.0 μM, and 8.0 μM, respectively, in the presence of 4 μM Ev1.
A φ×174 or M13 mp18 circular single-stranded DNA (20 μM) was incubated at 37° C. in 20 mM HEPES-NaOH (pH 7.5), 1 mM DTT, 1 mM MgCl2, and 0.1 mg/ml BSA. Thereafter, the sample was subjected to a deproteination treatment with 0.2% SDS and 1.3 mg/ml proteinase K. The obtained product was separated by 0.9% agarose gel electrophoresis, and a DNA band was then stained with SYBR Gold (Invitrogen).

The target in test [2] is T1, Ev1 protein. Briefly: Catenation of single-stranded DNA in coexistence of DNA topoisomerase type I protein and Ev1 protein. Type of test: biochemical. The following applies: 20 μM φ×174 single-stranded DNA; 37° C., 1 hour; E. coli TopoI 0.05-5 U or 2.8 nM hsTopoI. Here is the method: A 20 μM φ×174 single-stranded DNA, a 4 μM Ev1 protein, and a DNA topoisomerase type I protein in each concentration or unit number (derived from Escherichia coli or a human) were added to 10 μl of a reaction solution (20 mM HEPES, 1 mM DTT, 100 μg/ml BSA, and 1 mM MgCl2). The obtained mixture was reacted at 37° C. for 1 hour. Thereafter, the sample was subjected to a deproteination treatment using 0.2% SDS and 1.3 mg/ml proteinase K. The obtained product was separated by 0.9% agarose gel electrophoresis, and a DNA band was then stained with SYBR Gold (Invitrogen) (FIG. 13).

B1: Rad51 protein: Rad51 protein showing sequence similarity to Rad51B (protein, UniProt Q06609 2-339, looked up)
DNA repair protein RAD51 …: AMQMQLEANADTSVEEESFGPQPISRLEQCGINANDVKKLEEAGFHTVEAVAYAPKKELINIKGISEAKADKILAEAAKLVPMGFTTATEFHQRRSEIIQITTGSKELDKLLQGGIETGSITEMFGEFRTGKTQICHTLAVTCQLPIDRGGGEGKAMYIDTEGTFRPERLLAVAERYGLSGSDVLDNVAYARAFNTDHQTQLLYQASAMMVESRYALLIVDSATALYRTDYSGRGELSARQMHLARFLRMLLRLADEFGVAVVITNQVVAQVDGAAMFAADPKKPIGGNIIAHASTTRLYLRKGRGETRICKIYDSPCLPEAEAMFAINADGVGDAKD
For the molecule B1, the “effect on catenation of DNA molecules by the Ev1 protein” value in test [1] (4 μM Rad51, 4 μM Ev1 protein, regardless of presence or absence of ATP) is “inhibited the catenation of DNA molecules by the Ev1 protein”.

B2: Rad51B: Rad51B protein purified by the previously reported method (Yokoyama et al.) (protein)
chain: MGSKKLKRVGLSQELCDRLSRHQILTCQDFLCLSPLELMKVTGLSYRGVHELLCMVSRACAPKMQTAYGIKAQRSADFSPAFLSTTLSALDEALHGGVACGSLTEITGPPGCGKTQFCIMMSILATLPTNMGGLEGAVVYIDTESAFSAERLVEIAESRFPRYFNTEEKLLLTSSKVHLYRELTCDEVLQRIESLEEEIISKGIKLVILDSVASVVRKEFDAQLQGNLKERNKFLAREASSLKYLAEEFSIPVILTNQITTHLSGALASQADLVSPADDLSLSEGTSGSSCVIAALGNTWSHSVNTRLILQYLDSERRQILIAKSPLAPFTSFVYTIKEEGLVLQAYGNS
As to B2, the “effect on catenation of DNA molecules by the Ev1 protein” value in test [1] (4 μM Rad51B, 4 μM Ev1 protein, absence of ATP) was “not significant”; in test [1] (4 μM added protein, 4 μM Ev1 protein, presence of ATP), “significantly promoted”.

B3: DNA topoisomerase type I protein derived from Escherichia coli: TopoI (E. coli, New England Biolabs) (protein, UniProt P06612 1-865, looked up)
DNA topoisomerase 1: MGKALVIVESPAKAKTINKYLGSDYVVKSSVGHIRDLPTSGSAAKKSADSTSTKTAKKPKKDERGALVNRMGVDPWHNWEAHYEVLPGKEKVVSELKQLAEKADHIYLATDLDREGEAIAWHLREVIGGDDARYSRVVFNEITKNAIRQAFNKPGELNIDRVNAQQARRFMDRVVGYMVSPLLWKKIARGLSAGRVQSVAVRLVVEREREIKAFVPEEFWEVDASTTTPSGEALALQVTHQNDKPFRPVNKEQTQAAVSLLEKARYSVLEREDKPTTSKPGAPFITSTLQQAASTRLGFGVKKTMMMAQRLYEAGYITYMRTDSTNLSQDAVNMVRGYISDNFGKKYLPESPNQYASKENSQEAHEAIRPSDVNVMAESLKDMEADAQKLYQLIWRQFVACQMTPAKYDSTTLTVGAGDFRLKARGRILRFDGWTKVMPALRKGDEDRILPAVNKGDALTLVELTPAQHFTKPPARFSEASLVKELEKRGIGRPSTYASIISTIQDRGYVRVENRRFYAEKMGEIVTDRLEENFRELMNYDFTAQMENSLDQVANHEAEWKAVLDHFFSDFTQQLDKAEKDPEEGGMRPNQMVLTSIDCPTCGRKMGIRTASTGVFLGCSGYALPPKERCKTTINLVPENEVLNVLEGEDAETNALRAKRRCPKCGTAMDSYLIDPKRKLHVCGNNPTCDGYEIEEGEFRIKGYDGPIVECEKCGSEMHLKMGRFGKYMACTNEECKNTRKILRNGEVAPPKEDPVPLPELPCEKSDAYFVLRDGAAGVFLAANTFPKSRETRAPLVEELYRFRDRLPEKLRYLADAPQQDPEGNKTMVRFSRKTKQQYVSSEKDGKATGWSAFYVDGKWVEGKK
Consider B3, for which the “effect on catenation of single-stranded DNA molecules in coexistence with the Ev1 protein” value in test [2] is on record as “promoted”.

B4: DNA topoisomerase type I protein derived from a human: hsTopoI (human, Jena Bioscience) (protein, UniProt P11387 2-765, looked up)
DNA topoisomerase 1: SGDHLHNDSQIEADFRLNDSHKHKDKHKDREHRHKEHKKEKDREKSKHSNSEHKDSEKKHKEKEKTKHKDGSSEKHKDKHKDRDKEKRKEEKVRASGDAKIKKEKENGFSSPPQIKDEPEDDGYFVPPKEDIKPLKRPRDEDDADYKPKKIKTEDTKKEKKRKLEEEEDGKLKKPKNKDKDKKVPEPDNKKKKPKKEEEQKWKWWEEERYPEGIKWKFLEHKGPVFAPPYEPLPENVKFYYDGKVMKLSPKAEEVATFFAKMLDHEYTTKEIFRKNFFKDWRKEMTNEEKNIITNLSKCDFTQMSQYFKAQTEARKQMSKEEKLKIKEENEKLLKEYGFCIMDNHKERIANFKIEPPGLFRGRGNHPKMGMLKRRIMPEDIIINCSKDAKVPSPPPGHKWKEVRHDNKVTWLVSWTENIQGSIKYIMLNPSSRIKGEKDWQKYETARRLKKCVDKIRNQYREDWKSKEMKVRQRAVALYFIDKLALRAGNEKEEGETADTVGCCSLRVEHINLHPELDGQEYVVEFDFLGKDSIRYYNKVPVEKRVFKNLQLFMENKQPEDDLFDRLNTGILNKHLQDLMEGLTAKVFRTYNASITLQQQLKELTAPDENIPAKILSYNRANRAVAILCNHQRAPPKTFEKSMMNLQTKIDAKKEQLADARRDLKSAKADAKVMKDAKTKKVVESKKKAVQRLEEQLMKLEVQATDREENKQIALGTSKLNYLDPRITVAWCKKWGVPIEKIYNKTQREKFAWAIDMADEDYEF
On to B4, for which the “effect on catenation of single-stranded DNA molecules in coexistence with the Ev1 protein” value in test [2] is recorded as “promoted”.

Source of the values: US20100068766A1, “COMPOSITION FOR CLEAVING AND/OR CONNECTING SINGLE STRAND DNA” (WASEDA UNIVERSITY, priority 2007, published 2010).
